Results reported in article PMC13557712, “Nim1-related kinases regulate septin organization and cytokinesis by modulating Hof1 at the cell division site” (eLife, 2026).

Biological target: T1, GST-Hof1-N-terminus (1–350 aa) (S. cerevisiae, UniProt Q05080 1-350)
T1 construct: Hof1, S. cerevisiae, N-terminal fragment with the F-BAR domain, residues 1-350, amplified from genomic DNA and cloned into pGEX-5X1; also called GST-Hof1^F-BAR; GST-Hof1^(N (1–350)); source: E. coli BL21-DE3, purified on glutathione Sepharose 4B and kept on the resin; not shown: GST, N-terminal, kept
T1 sequence (looked up): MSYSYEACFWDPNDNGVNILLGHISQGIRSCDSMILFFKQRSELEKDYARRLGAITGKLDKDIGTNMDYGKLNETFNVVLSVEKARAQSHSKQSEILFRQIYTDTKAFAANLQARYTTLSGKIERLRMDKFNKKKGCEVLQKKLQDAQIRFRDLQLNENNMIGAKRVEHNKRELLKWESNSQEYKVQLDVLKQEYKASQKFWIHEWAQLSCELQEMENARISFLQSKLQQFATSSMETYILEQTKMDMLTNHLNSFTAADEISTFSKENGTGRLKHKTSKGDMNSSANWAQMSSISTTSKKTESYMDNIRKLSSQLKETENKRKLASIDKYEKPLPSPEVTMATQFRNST
Test: pull-down; GST-Hof1 (1-350) (~3 µg) on glutathione beads mixed with ~1 µg 6His-bdSUMO-Gin4-KA1; PBS, 0.2% NP-40, 1 hr at 4°C; washed with PBS, 1% NP-40; western blot with anti-His and anti-GST
Conditions: both partners purified

- binding result: binds
B1: 6His-bdSUMO-Gin4-KA1 (1003–1142 aa) (domain or fragment, S. cerevisiae, UniProt Q12263 1003-1142, looked up)
chain: GSQAKDHSKDHLKEHKQDKNTAIGNGSFFRKFSKSSDKTMELYAKISAKQLFNGLEKLLRGWTQYGLKNIKSHPNNLTLTGKLSSDNIFSLRSTLFEVNIYPRGKMSVVQFKKVSGSFKAVKKLVNEVENVLNKEGVLQK
notes: also called 6xHis-bdSUMO-Gin4^KA1; source: E. coli BL21-DE3, purified (Ni-NTA, buffer exchange); not shown: His6, N-terminal, kept; bdSUMO, N-terminal, kept
